In patent US20190111106A1:

Molecular target: AC domain (catalytic domain) of Bordetella pertussis adenylate cyclase toxin, recombinant (Bordetella pertussis) (UniProt J7QLC0)
Assay: SPR competition: AC domain (10 µM) pre-mixed with CaM and injected over an FHA-coated chip

Substance Calmodulin (from UniProt P0DP23 2-149) has a percent reduction of AC domain binding to FHA of 75%.
